The source of these data is article PMC10525234, “Antifungal Action of Arabidopsis thaliana TCP21 via Induction of Oxidative Stress and Apoptosis” (Antioxidants, 2023).

The data set deals with the molecule itself. Put plainly: negative-stain transmission electron microscopy; purified AtTCP21 on a glow-discharged carbon-coated copper grid, negatively stained with 2% uranyl acetate; protein dialyzed against 25 mM HEPES pH 7.2, 150 mM NaCl.

B1: Arabidopsis thaliana TCP21 (natural protein)
chain: not shown
notes: full-length protein expressed from cDNA; also called AtTCP21; recombinant AtTCP21; source: E. coli BL21(DE3), pET28a, purified (Ni-NTA, SEC)
For B1, the binding result was “binds”.
